In the series the target is T1, RB69 DNA polymerase (RB69 pol) (Bacteriophage RB69, UniProt Q38087 1-903, D222A;D327A).
T1 sequence: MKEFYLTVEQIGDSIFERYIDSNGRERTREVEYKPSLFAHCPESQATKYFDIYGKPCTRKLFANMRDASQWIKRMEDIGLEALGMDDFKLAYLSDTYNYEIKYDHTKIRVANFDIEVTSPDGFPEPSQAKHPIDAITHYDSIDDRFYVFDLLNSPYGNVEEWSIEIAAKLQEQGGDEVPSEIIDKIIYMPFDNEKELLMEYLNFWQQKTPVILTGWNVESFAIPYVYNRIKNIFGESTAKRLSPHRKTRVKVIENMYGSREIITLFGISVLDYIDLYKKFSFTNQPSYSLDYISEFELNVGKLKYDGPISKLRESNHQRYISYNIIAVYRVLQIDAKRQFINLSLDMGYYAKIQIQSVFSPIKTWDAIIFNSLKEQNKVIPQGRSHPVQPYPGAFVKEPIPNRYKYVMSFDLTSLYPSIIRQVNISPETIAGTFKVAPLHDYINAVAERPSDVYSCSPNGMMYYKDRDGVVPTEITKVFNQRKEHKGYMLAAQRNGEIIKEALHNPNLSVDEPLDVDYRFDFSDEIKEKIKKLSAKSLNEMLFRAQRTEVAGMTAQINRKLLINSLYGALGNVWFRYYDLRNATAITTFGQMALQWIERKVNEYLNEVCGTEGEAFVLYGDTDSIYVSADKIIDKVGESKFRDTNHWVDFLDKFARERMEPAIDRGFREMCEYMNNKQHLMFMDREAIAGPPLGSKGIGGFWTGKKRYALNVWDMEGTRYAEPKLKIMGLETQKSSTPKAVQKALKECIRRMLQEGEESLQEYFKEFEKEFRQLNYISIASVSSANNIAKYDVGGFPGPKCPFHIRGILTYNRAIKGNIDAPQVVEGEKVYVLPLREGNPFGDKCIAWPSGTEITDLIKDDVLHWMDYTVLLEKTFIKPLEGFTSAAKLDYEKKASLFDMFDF
The series is described as follows: X-ray crystallography.

B1: P/T cocrystallization duplex (18-mer template/13-mer ddC primer) (dsDNA)
DNA 1: TCAGGTAAGCAGTCCGCG
DNA 2: GCGGACTGCTTAC
modifications: primer 3' terminus dideoxy (ddC)
For B1, the binding result is on record as “binds”.

Source of the values: publication PMC3036992.
